Positions count from the first letter of the chain named. Values joined by “and” are separate entries in the source; they are usually repeats but may differ in a detail not shown here. Equal values may be shown once. Read-outs that look alike come from different tables or passages of the source.
B1: 3-E2-A (antibody, V domains shown)
VH: EVQLQQSGPELVKPGASVKISCKASGYTFTDYYMNWVKQSHGKSLEWIGDINPNNGGTSYTQKFKGKATLTVDKSSSKAYMELRSLTSEDSAVYYCARRGDGHYGGFTYWGQGTLVTVSA
VL: not shown
B2: 2-O12-A (antibody, V domains shown)
VH: B1 VH with P53S, S59T, T61D, K74R, K78T, Y104F
VL: not shown
B3: 10-L24-A (antibody, V domains shown)
VH: B1 VH with P53S, S59T, T61D, K74R, K78T, Y104F
VL: not shown
B4: 8-H5-A (antibody, V domains shown)
VH: QVTLKESGPGILQSSQTLSLTCSLSGFSLSTSGMGVSWVRQPSGKGLEWLAHIYWDDDKRYTPSLKSRLTISTDSSRKQVFLKITSVDTADTATYYCARRDLHDYDGWFAYWGQGTLVTVSA
VL: DIVMTQSQKFMSTAVGDRVSVTCKASQNVGTNVAWYQQKPGQSPKALIYSASFRYSGVPDRFSGSGSGTDFTLTISNVQSEDLAEYFCQQYNSYPLTFGSGTKLEIK
B5: 4-K13-A (antibody, V domains shown)
VH: QAYLQQSGAELVRPGASVKMSCKASGYTFTSYTVHWVKQTPRQGLEWIGAIYPGNVDTSYNQNFKGKATLTVDKSSSTAYMQLSSLTSEDSAVYFCARDGYYAMDYWGQGTSVTVSS
VL: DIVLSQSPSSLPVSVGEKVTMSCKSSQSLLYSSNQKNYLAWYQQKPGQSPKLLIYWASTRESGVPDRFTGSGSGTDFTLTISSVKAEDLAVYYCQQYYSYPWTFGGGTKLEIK
B6: 4-N22-A (antibody, V domains shown)
VH: QVQLQQPGTELVKPGASVKLSCKASGYTFTNYWMYWVKQRPGQGLDWIGNINPSNGGTNYNEKFKSKATLTVDKSSSTAYMQLSSLTSEDSAVYYCARETGNYWGQGTTLTVSS
VL: DILMTQSPSSMSVSLGDTVSISCHASQGISSNIGWLQQKPGKSFKGLIYHGTNLEDGVPSRFSGSGSGADYSLTISSLESEDFADYYCVQYAQFPYTFGGGTKLEIK
B7: 4-M3-A (antibody, V domains shown)
VH: EVQLQQSGPELVKPGDSVKISCKASGYSFTGYFMNWVMQSHGKSLEWIGRINPNNGETFYNQKFKGKATLTVDKSSDTAHMELRSLTSEDSAVYYCARGGTGTGWGQGTTLTVSS
VL: B6 VL with S22T, H50Y, F83L, V89I
B8: 1-B11-A (antibody, V domains shown)
VH: QVQLQQSGPELVKPGASVKISCKASGYTFTDHYINWVKQRPGQGLEWIGWIFPGSGSTYYNEQFKGKATLTVDKSSNTAYMLLSSLTSEDSAVYFCARSGGLRLGFAYWGQGTLVTVSA
VL: DIQMTQTTSSLSASLGDRVTISCRASQDISNYLNWYQQKPDGTVKLLIYYTSRLHSGVPSRFSGSGSGTDYSLTISNLEQEDISTYFCQQVNTLPYTFGGGTKLEIK

Legend:
Assay in all cases: ELISA
[1] = biological target: T1, SARS-CoV-2 BA.2 spike trimer variant (SARS-CoV-2 Omicron BA.2, UniProt P0DTC2 16-1213)
[2] = biological target: T2, SARS-CoV-2 B.1.617.2 spike trimer variant (SARS-CoV-2 B.1.617.2 (Delta), UniProt P0DTC2 16-1213)
[3] = biological target: T2, SARS-CoV-2 B.1.617.2 spike trimer …; remark: listed apart in the source
[4] = biological target: T2, SARS-CoV-2 B.1.617.2 spike trimer …; remark: listed apart in the source
[5] = biological target: SARS-CoV-2 Beta (B.1.351) variant prefusion stabilized spike trimer protein (UniProt P0DTC2 14-1213)
[6] = biological target: T3, SARS-CoV-2 B.1.1.529 spike trimer variant (SARS-CoV-2 B.1.1.529 (Omicron), UniProt P0DTC2 16-1213)
[7] = biological target: T1, SARS-CoV-2 BA.2 spike trimer variant; remark: listed apart in the source
[8] = biological target: T1, SARS-CoV-2 BA.2 spike trimer variant; remark: listed apart in the source
[9] = biological target: T3, SARS-CoV-2 B.1.1.529 spike trimer …; remark: listed apart in the source
[10] = biological target: T3, SARS-CoV-2 B.1.1.529 spike trimer …; remark: listed apart in the source

| Binder | EC50 [1] [µM] | IC50 [2] [µM] | IC50 [3] | EC50 [4] | IC50 [5] [µM] | EC50 [6] [µM] | IC50 [7] [µM] | IC50 [8] [µM] | IC50 [9] [µM] | IC50 [10] [µM] |
| --- | --- | --- | --- | --- | --- | --- | --- | --- | --- | --- |
| B1 | 0.0716 | 0.0599 | 9 µg/mL and 59.9 nM | 0.547 nM and 0.085 µg/mL | – | – | – | – | – | – |
| B2 | 0.192 | 0.028 | 4.2 µg/mL and 28 nM | 0.096 µg/mL and 0.625 nM | 0.0843 | 0.0301 | – | – | – | – |
| B3 | 0.0619 | 0.0195 | 2.9 µg/mL and 19.5 nM | 0.063 µg/mL and 0.405 nM | – | 0.0206 | 0.0973 | 0.097 | – | – |
| B4 | 0.00106 | 0.0274 | 4.1 µg/mL and 27.4 nM | 0.251 nM and 0.027 µg/mL | 0.0168 | 0.0005 | 0.0138 | 0.0138 | 0.0101 | 0.0101 |
| B5 | – | – | – | 29.3 nM and 4.54 µg/mL | – | – | – | – | – | – |
| B6 | 0.00075 | 0.0175 | 2.6 µg/mL and 17.5 nM | 0.218 nM and 0.034 µg/mL | 0.014 | 0.00048 | 0.0258 | 0.0258 | 0.0234 | 0.0234 |
| B7 | – | 0.0621 | 9.3 µg/mL and 62.1 nM | 0.522 nM and 0.081 µg/mL | 0.0108 | – | – | – | – | – |
| B8 | 0.181 | – | – | 0.12 µg/mL and 0.772 nM | – | 0.00188 | – | – | – | – |
